Experimental data taken from the supplement of paper PMC9170038.

Tested on: MS2 coat protein
Assay: apparent KD of MS2 coat protein; designed switch direction (-1 OFF switch, 1 ON switch): -1; higher = weaker reporter binding
Method in brief: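 Designed RNA switches with common flanks were made on Illumina chips by stalled E. coli RNA polymerase. Titration with SNAP-549-labelled MS2 coat protein doubled from 0.7 or 1.5 nM up to 3 µM. Apparent KD is each design's median over clusters after curve-fitting normalised fluorescence.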

[1] = Eterna round: R95, input ligand: microRNA oligo, concentration not stated
[2] = input ligand: microRNA oligo, concentration not stated
[3] = Eterna round: R95, input ligand: FMN 200 uM
[4] = Eterna round: R95, input ligand: none

Row | Sequence | apparent KD of MS2 coat protein [1] [µM] | apparent KD of MS2 coat protein (input ligand: FMN 200 uM) [µM] | apparent KD of MS2 coat protein (input ligand: none) [µM] | apparent KD of MS2 coat protein [2] [µM] | apparent KD of MS2 coat protein [3] [µM] | apparent KD of MS2 coat protein [4] [µM]
1 | CCAGCGUAUGUGAGGAUAUGCUGGUCCUUGGAUCAGCAGAAGGCACAUGAGGAUCACCCAUGUGGAAACGUUGG [JL bmx4 3.41] (puzzle: Brourd's mod of Exclusion 4) | 0.0164 | – | – | – | – | –
2 | AGCGGUGUUCAGGAUAUCUGGUUAUGACACAUGAGAGAAGGGAGCACAUGAGGAUCACCCAUGUGACCUUCGCG [Eternabot (Original) Solution 23] (Eterna round: R97, puzzle: Exclusion 6) | – | 0.016 | 0.0155 | – | – | –
3 | CUCCGCCGCAGAGGAUAUGGAUGUCGGAGACAUGAGGAUCACCCAUGUAUCCUGUCGAUGAGUACCCAGAAGGUUGUCACGCAU [Eternabot solution 49] (Eterna round: R96, puzzle: Exclusion NG 2) | – | 0.0264 | 0.0261 | 0.026 | – | –
4 | UAUUAGCAAGCAACUGGGUACAUGAGGAUCACCCAUGUGCUCGUCUUAUAAGGUACUGUGACGAAAGUCACUGUACC [mod--Eli14] (Eterna round: R97, puzzle: Sensor, turn-off variant 1) | – | 0.0178 | 0.0163 | – | – | –
5 | AAUAAUCGGGCCUUCCUAAUACAUGAGGAUCACCCAUGUCUCGAGGAUAUACCAACGCACGGUCCGUAGAAGGCGAGACCACAC [Vesoonso] (Eterna round: R96, puzzle: Exclusion NG 3) | – | 0.0242 | 0.0219 | 0.0132 | – | –
6 | CCCGACAUGUCUUCGUAAUACAUGAGGAUCACCCAUGUCACGUAGGAUAUCCAGUCGGUAAGAGAGGAGAAGGAUGUAAGAAAU [Vedite] (Eterna round: R96, puzzle: Exclusion NG 3) | – | 0.0155 | 0.0155 | 0.00914 | – | –
7 | UUUGUCUGUGUGAGGAUAUACUUGUUUGGGUUUUUGUAGAAGGCACAUGAGGAUCACCCAUGUAUUUUGUCGUG [JR_BME4_Sub018] (puzzle: Brourd's mod of Exclusion 4) | 0.0367 | – | – | – | – | –
8 | UCAUACGGUGAGGAUAUCUCCACUAAAGUGUGUAGAGAAGGCGCUACAUGAGGAUCACCCAUGUUUAUGGGCAG [Ex-6 Malc#13] (puzzle: Exclusion 6) | 0.109 | – | – | – | 0.052 | 0.124
9 | GGCAUCGGAGGAUAUACUUAUGGUGAUGUUCGAAGCUUUCUACUUGAGGAUCACCCAAGUAGAAGGCCGAUGCC [jl-ex2.4.78 ViennaUCT mod] (Eterna round: R97, puzzle: Exclusion 2) | – | 0.00528 | 0.0174 | – | – | –
10 | AUUUAUGGAGGAUAUACUUGAGGAUCACCCAAGUGGAGUCCCAAAUGGGCGGUAAAUAGUAGAAGGCCGUCUUA [jl-ex3-4.49 ViennaUCT mod] (Eterna round: R97, puzzle: Exclusion 3) | – | 0.0172 | 0.0165 | – | – | –
11 | AGGCCCGAUGGAGGAUAUGUAAGUAAUUGAGAUACUUCAUGUCACAUGAGGAUCACCCAUGUACGGCAGAAGGCCGACGGAGCC [Raanoner] (Eterna round: R96, puzzle: Exclusion NG 2) | – | 0.0249 | 0.02 | 0.0173 | – | –
12 | GUGGAACAUGAGGAUCACCCAUGUGAGGAUAUGUGAGAAGGAUUUGAGAGGGAGAGGGACAGAAGGCACUAGGA [JR_Exclu1_Sub084] (puzzle: Exclusion 1) | 0.0336 | – | – | – | 0.0327 | 0.0419
13 | GUCCCACAUGAGGAUCACCCAUGUGAGGAUAUGGUUUCGCUGGCCGUAGCCAGUGGAACCAGAAGGCGCAUGAU [Mat - Exclusion 1 - JL Mod - D2] (Eterna round: R97, puzzle: Exclusion 1) | – | 0.0252 | 0.0203 | – | – | –
14 | GUCUAGAGAGGAUAUAUUUACAGUGUACGUCGGAUGAUCGCACUUGAGGAUCACCCAAGUAGAAGGCUCGAGGG [EX2 #31] (Eterna round: R97, puzzle: Exclusion 2) | – | 0.875 | 1.85 | – | – | –
15 | CUGAUGUGAGGAUAUCUAAAAGAAACUGGGCAAAUACCCAGAGAGAAGGCACAUGAGGAUCACCCAUGUAACGA [Anedin] (puzzle: Exclusion 4) | 0.0209 | – | – | – | – | –
16 | AUUAAUGUCAAAGGAUAUCAGCACGUGUAGUGCUGAGAAGGUUGAACAUGAGGAUCACCCAUGUAGAUCAUUAAUAAUUUAAUU [ENG1/10-B3] (Eterna round: R96, puzzle: Exclusion NG 1) | – | 0.0255 | 0.0206 | 0.0145 | – | –
17 | GAUUAUGCGAGCUUUAGGGACAUGAGGAUCACCCAUGUUCGUCUUAUUAAUCUGGGUGCACUGACAUACCUAAAUCU [JMF 92] (puzzle: Sensor v3, turn-off variant 1) | 0.0819 | – | – | – | 0.0909 | 0.132
18 | GUGUGCUGAGGAUAUACAGAGGAAGAUAAUAGAAUAGAAUGACAUGAGGAUCACCCAUGUAGAAGGCAGAGUGU [Excluse me!! 14 - Jieux - Exclusion 2] (puzzle: Exclusion 2) | 0.0263 | – | – | – | 0.0405 | 0.0331

Row | Sequence | apparent KD of MS2 coat protein [1] [µM] | apparent KD of MS2 coat protein (input ligand: FMN 200 uM) [µM] | apparent KD of MS2 coat protein (input ligand: none) [µM] | apparent KD of MS2 coat protein [2] [µM] | apparent KD of MS2 coat protein [3] [µM] | apparent KD of MS2 coat protein [4] [µM]
19 | GGGAAGAACCAACAAGCAAACAUGAGGAUCACCCAUGUAGUAGGAGGAAGAAAGGUGAUUUAGAAAGCUCGACUUAU [AK-miRNA-r3-6] (Eterna round: R97, puzzle: Sensor, turn-off variant 1) | – | 0.159 | 0.202 | – | – | –
20 | UUUGAUUAAGUGAGGAUAUACUGUUUGUAUUGAUUGUAGAAGGUACAUGAGGAUCACCCAUGUUUAGUAUUUAU [JR_BME4_Sub037] (puzzle: Brourd's mod of Exclusion 4) | 0.0192 | – | – | – | – | –
21 | CCGGCUUAGCAGGAUAUAGGAGUCGAUAGACACCUAGAAGGGCUAACAUGAGGAUCACCCAUGUGUCCUACCGG [Fiskers Ex 6 - 100] (puzzle: Exclusion 6) | 0.0259 | – | – | – | 0.065 | 0.0307
22 | ACAUGUUAUCCAUGAUAUCACAUGAGGAUCACCCAUGUUAUGGCGAUUUUGAGGUGUAAGCUUUGUGCUCGACUUAU [JR_STOV1_Sub056] (Eterna round: R97, puzzle: Sensor, turn-off variant 1) | – | 0.045 | 0.05 | – | – | –
23 | ACCGUGUAAGGAUAUCGAGGCCGAGGAAGUCGCAUGGCCUGUGAGAAGGUACAUGAGGAUCACCCAUGUCCCAU [Eternabot (L2) Solution 6] (Eterna round: R97, puzzle: Exclusion 4) | – | 0.0287 | 0.0276 | – | – | –
24 | GCGCACCUACCAAAAGGUAGGCCCACAUGAGGAUCACCCAUGUAGGAUAUCGAUUGCUUUGCAGUCGAGAAGGACGUGAUGCGC [JL ENG3 3.80 Mod 17] (Eterna round: R96, puzzle: Exclusion NG 3) | – | 0.0257 | 0.0183 | 0.0116 | – | –
25 | AAUAAUAGCGAGGAUAUCGUAUCGGAAACGAUACGAGAAGGCGUAACAUGAGGAUCACCCAUGUUCCUCAAUAA [Fiskers Ex 6 - 3] (puzzle: Exclusion 6) | 0.0397 | – | – | – | – | –
26 | CUUUUUGUCGAGGAUAUGCACCAGCUCACUGACGCAGAAGGCGACACAUGAGGAUCACCCAUGUCAGUUCGCGU [salish99_ex6_r004_433] (Eterna round: R97, puzzle: Exclusion 6) | – | 0.0353 | 0.02 | – | – | –
27 | AAUAACAAGCCGAUCCUAAACAUGAGGAUCACCCAUGUGCUCGUCUUGUAAAGUACUAUCACGAAAGUGAUAGUACA (puzzle: Sensor v3, turn-off variant 1) | 0.345 | – | – | – | 0.0163 | 0.0145
28 | UUCGUGCAGCUUUGCUGUACGAGUACAUGAGGAUCACCCAUGUAGGAUAUGGUACGCUUUGCGUGCUAGAAGGAUAUGUGUAGC [salish99_ExNG3_r04_504] (Eterna round: R96, puzzle: Exclusion NG 3) | – | – | – | 0.0257 | – | –
29 | GCUGGUCGAGGAUAUGCAUAUACUGGAUACAGUGGAAGGUCACAUGAGGAUCACCCAUGUAGAAGGCGACUAGC [EX2 #37] (Eterna round: R97, puzzle: Exclusion 2) | – | 0.558 | 0.463 | – | – | –
30 | UAACUUUUUGUAAGGAUAUCGGUCCCAAGGGACAACGAGAAGGUACAUGAGGAUCACCCAUGUGAAAUAAGAAU [Mod of Zala 20 - Jieux - Brourd's Mod of Exclusion 4] (Eterna round: R97, puzzle: Brourd's mod of Exclusion 4) | – | 0.154 | 0.0227 | – | – | –
31 | CCGUGUUUAGGAUAUGCUAUGGAAGUGUUAAUAUUCAUUAGACAUGAGGAUCACCCAUGUAGAAGGAGGCCGCG [Eternabot (L1) Solution 96] (Eterna round: R97, puzzle: Exclusion 2) | – | 0.34 | 0.142 | – | – | –
32 | GGCUAGUGAGGAUAUACGUGCAGUCCUCAGUCGCCAGUCGGACAUGAGGAUCACCCAUGUAGAAGGUAUCGGCA [Beesraat] (puzzle: Exclusion 2) | 0.0302 | – | – | – | – | –
33 | ACAAGAAUUUUGCUCGUAAAGUAGAAACGCGAGAGCGGGACAUGAGGAUCACCCAUGUAAAGGCAGUUGGUGGAGAU [JR_SV3TOV2_Sub028] (puzzle: Sensor v3, turn-off variant 2) | 0.0532 | – | – | – | 0.0397 | 0.0487
34 | ACGGACGCAGGAUAUCGCACCGGAGACUUGAGGAUCACCCAAGUGGUUUUCCCUUCGCAACGAGAAGGGCGACCUA [Tiarle] (Eterna round: R97, puzzle: Exclusion 5) | – | 0.0557 | 0.0352 | – | – | –
35 | GGAUUUACUGAGGAUAUUGCAUCACCCGACUGAUAAGAAGGCAGAACAUGAGGAUCACCCAUGUGGGUAGUCAA [Bingo-Bango-3] (Eterna round: R97, puzzle: Exclusion 6) | – | 0.0296 | 0.0195 | – | – | –
